Measurements: the supplement of paper PMC10567573

B1: KLHL14 (parent)
chain: CAVLDDSIYLVGGYSWSMGAYKSS
B2: ZBED3 (parent)
chain: GPGFHAGTSALWRHLRSAHRRELE

Variants of: B1
Test: protein stability index of a GFP-peptide fusion (GPS, HEK-293T) (PSI 1-6); higher = more stable
Conditions: c terminus: a fixed tail appended
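Further: lentivirally expressed fusions sorted by FACS into six bins by GFP to DsRed ratio, PSI derived from sequencing read proportions per bin multiplied by bin number.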

| Variant | protein stability index |
| --- | --- |
| CAVLDDSIYLVGGYSWSMGAYKSR | 1.75 |

Variants of: B2
Test: as above
Conditions: c terminus: a fixed tail appended

| Variant | protein stability index |
| --- | --- |
| GPGFHAETSALWRHLRSAHRRELE | 5.51 |
| GPGFHAITSALWRHLRSAHRRELE | 2.31 |
| GPGFHAPTSALWRHLRSAHRRELE | 2.23 |
| GPGFHAYTSALWRHLRSAHRRELE | 2.68 |
| GPGFHAKTSALWRHLRSAHRRELE | 2.01 |
| GPGFHAVTSALWRHLRSAHRRELE | 2.19 |
| GPGFHAGTSALWRHLRMAHRRELE | 2.25 |
| GPGFHAGTSALWRHLRGAHRRELE | 2.6 |
| GPGFHAGTSALWRHLRVAHRRELE | 1.94 |
| GPGFHAGTSALWRHLREAHRRELE | 2.78 |
| GPGFHAGTSALWRHLRCAHRRELE | 1.56 |
| GPGFHAGTSALWRHLRQAHRRELE | 2.03 |
| GPGFHAGTSALWRHLRKAHRRELE | 2.51 |
| GPGFHAGTSALWRHLRDAHRRELE | 2.9 |
| GPGFHAGTSALWRHLRIAHRRELE | 2.17 |
| GPGFHAGTSALWRHLRSAHRRWLE | 2.25 |
| GPGFHAGTSALWRHLRSAHRRILE | 1.95 |
| GPGFHAGTSALWRHLRSAHRRRLE | 2.38 |
| GPGFHAGTSALWRHLRSAHRRMLE | 2.38 |
| GPGFHAGTSALWRHLRSAHRRSLE | 2.17 |
| GPGFHAGTSALWRHLRSAHRRKLE | 1.97 |
| GPGFHAGTSALWRHLRSAHRRQLE | 1.72 |
| GPGFHAGTSALWRHLRSAHRRHLE | 3.09 |
| GPGFHAGTSALWRHLRSAHRRCLE | 2.08 |

| Variant | protein stability index |
| --- | --- |
| GPGFHAGTSALWRHLRSAHRRLLE | 2.4 |
| GPGFHAGTSALWRHLRSAHRRVLE | 2.44 |
| GPGFHAGTSALWRHLRSAHRRYLE | 1.47 |
| GPGFHAGTSALWRHLRSAHRMELE | 1.9 |
| GPGFHAGTSALWRHLRSAHRNELE | 1.77 |
| GPGFHAGTSALWRHLRSAHRAELE | 1.7 |
| GPGFHAGTSALWRHLRSAHRHELE | 1.73 |
| GPGFHAGTSALWRHLRSAHRYELE | 2.14 |
| GPGFHAGTSALWRHLRSAHRTELE | 2.49 |
| GPGFHAGTSALWRHLRSAHREELE | 2.33 |
| GPGFHAGTSALWRHLRSAHRLELE | 1.77 |
| GPGFHAGTSALWRHLRSAPRRELE | 2.11 |
| GPGFHAGTSALWRHLRSALRRELE | 2.53 |
| GPGFHAGTSALWPHLRSAHRRELE | 2.12 |
| GPGFHAGTSALWAHLRSAHRRELE | 2.8 |
| GPGFHAGTSALWGHLRSAHRRELE | 1.81 |
| GPGFHAGTSALWSHLRSAHRRELE | 1.36 |
| GPGFHAGTSALWQHLRSAHRRELE | 2.72 |
| GPGFHAGTSALWCHLRSAHRRELE | 1.47 |
| GPGFHAGTSALWYHLRSAHRRELE | 2.1 |
| GPGFHAGTSALWFHLRSAHRRELE | 1.73 |
| GPGFHAGTSALWIHLRSAHRRELE | 1.88 |
| GPGFHAGTSALWKHLRSAHRRELE | 2.08 |
| GPGFHAGTSALWLHLRSAHRRELE | 1.79 |

| Variant | protein stability index |
| --- | --- |
| GPGFHAGTSFLWRHLRSAHRRELE | 2.33 |
| GPGFHAGTSKLWRHLRSAHRRELE | 2 |
| GPGFHAGTSRLWRHLRSAHRRELE | 3.4 |
| GPGFHAGTSYLWRHLRSAHRRELE | 2.31 |
| GPGFHAGTSCLWRHLRSAHRRELE | 2.32 |
| GPGFHAGTSLLWRHLRSAHRRELE | 1.88 |
| GPGFHAGTSHLWRHLRSAHRRELE | 2.63 |
| GPGFHAGTSQLWRHLRSAHRRELE | 2.43 |
| GPGFHAGTSALWRHLRSAHRREQE | 2.13 |
| GPGFHAGTSALWRHLRSAHRREWE | 1.88 |
| GPGFHAGTSALWRHLRSAHRRERE | 2.91 |
| GPGFHAGTSALQRHLRSAHRRELE | 2.72 |
| GPGFHAGTSALHRHLRSAHRRELE | 2.16 |
| GPGFHAGTSALGRHLRSAHRRELE | 1.64 |
| GPGFHAGTSALDRHLRSAHRRELE | 2.92 |
| GPGFHAGTSALRRHLRSAHRRELE | 3.35 |
| GPGFHAGTSALVRHLRSAHRRELE | 2.44 |
| GPGFHAGTSALYRHLRSAHRRELE | 2.63 |
| GPGFHAGTSALIRHLRSAHRRELE | 2.07 |
| GPGFHAGTSALFRHLRSAHRRELE | 2.1 |
| GPGFHAGTSALTRHLRSAHRRELE | 2.54 |
| GPGFHAGTSALLRHLRSAHRRELE | 2.24 |
| GPGFPAGTSALWRHLRSAHRRELE | 4.37 |
| GPGFGAGTSALWRHLRSAHRRELE | 2.62 |

| Variant | protein stability index |
| --- | --- |
| GPGFSAGTSALWRHLRSAHRRELE | 2.95 |
| GPGFQAGTSALWRHLRSAHRRELE | 3.44 |
| GPGFRAGTSALWRHLRSAHRRELE | 3.02 |
| GPGFEAGTSALWRHLRSAHRRELE | 3.63 |
| GPGQHAGTSALWRHLRSAHRRELE | 4.02 |
| GPGCHAGTSALWRHLRSAHRRELE | 3.19 |
| GPGAHAGTSALWRHLRSAHRRELE | 3.15 |
| GPGRHAGTSALWRHLRSAHRRELE | 4.36 |
| GPGDHAGTSALWRHLRSAHRRELE | 3 |
| GPGSHAGTSALWRHLRSAHRRELE | 3.39 |
| GPGEHAGTSALWRHLRSAHRRELE | 2.83 |
| GPGVHAGTSALWRHLRSAHRRELE | 3 |
| GPGYHAGTSALWRHLRSAHRRELE | 3.37 |
| GPGFHAGTSALWRHMRSAHRRELE | 2.7 |
| GPGFHAGTSALWRHGRSAHRRELE | 1.27 |
| GPGFHAGTSALWRHQRSAHRRELE | 1.78 |
| GPGFHAGTSALWRHSRSAHRRELE | 2.21 |
| GPGFHAGTSALWRHDRSAHRRELE | 1.87 |
| GPGFHAGTSALWRHRRSAHRRELE | 3.45 |
| GPGFHAGTSALWRHERSAHRRELE | 1.76 |
| GPGFHAGTSALWRHLRSAHRRELF | 2.32 |
| GPGFHAGTSALWRHLRSAHRRELT | 2.35 |
| GPGFHAGTSALWRHLRSAHRRELN | 1.91 |
| GPGFHAGTSALWRHLRSAHRRELK | 3.2 |

| Variant | protein stability index |
| --- | --- |
| GPGFHAGTSALWRHLRSAHRRELA | 2.02 |
| GPGFHAGTSALWRHLRSAHRRELW | 1.84 |
| GPGFHAGTSALWRHLRSAHRRELD | 1.94 |
| GPGFHAGTSALWRHLRSAHRRELQ | 2.51 |
| GPGFHAGTSALWRFLRSAHRRELE | 1.68 |
| GPGFHAGTSALWRRLRSAHRRELE | 2.32 |
| GPGFHAGTSALWRYLRSAHRRELE | 1.98 |
| GPGFHAGTSALWRTLRSAHRRELE | 2.28 |
| GPGFHAGTSALWRWLRSAHRRELE | 1.74 |
| GPGFHAGTSALWRQLRSAHRRELE | 2.51 |
| GPGFHAGTSALWRELRSAHRRELE | 2.33 |
| GPGFHAGTSALWRNLRSAHRRELE | 2.16 |
| GPGFHAGTSALWRVLRSAHRRELE | 2.33 |
| GPGFHAGTSALWRCLRSAHRRELE | 2.17 |
| GPGFHAGCSALWRHLRSAHRRELE | 2.51 |
| GPGFHAGYSALWRHLRSAHRRELE | 2.37 |
| GPGFHAGDSALWRHLRSAHRRELE | 3.67 |
| GPGFHAGASALWRHLRSAHRRELE | 1.75 |
| GPGFHAGNSALWRHLRSAHRRELE | 2.91 |
| GPGFHAGVSALWRHLRSAHRRELE | 1.84 |
| GPGFHAGRSALWRHLRSAHRRELE | 2.37 |
| GPGFHAGFSALWRHLRSAHRRELE | 1.64 |
| HPGFHAGTSALWRHLRSAHRRELE | 3.15 |
| PPGFHAGTSALWRHLRSAHRRELE | 3.04 |

| Variant | protein stability index |
| --- | --- |
| RPGFHAGTSALWRHLRSAHRRELE | 3.02 |
| APGFHAGTSALWRHLRSAHRRELE | 2.7 |
| SPGFHAGTSALWRHLRSAHRRELE | 1.79 |
| KPGFHAGTSALWRHLRSAHRRELE | 3.07 |
| WPGFHAGTSALWRHLRSAHRRELE | 2.7 |
| GPGFHAGTSAPWRHLRSAHRRELE | 2.23 |
| GPGFHAGTSANWRHLRSAHRRELE | 2.3 |
| GPGFHAGTSAHWRHLRSAHRRELE | 3.28 |
| GPGFHAGTSASWRHLRSAHRRELE | 2.03 |
| GPGFHAGTSAFWRHLRSAHRRELE | 1.7 |
| GPGFHAGTSATWRHLRSAHRRELE | 2.16 |
| GPGFHAGTSAKWRHLRSAHRRELE | 3.32 |
| GPGFHAGTSAVWRHLRSAHRRELE | 1.99 |
| GHGFHAGTSALWRHLRSAHRRELE | 3.39 |
| GCGFHAGTSALWRHLRSAHRRELE | 1.37 |
| GWGFHAGTSALWRHLRSAHRRELE | 2.18 |
| GLGFHAGTSALWRHLRSAHRRELE | 2.5 |
| GAGFHAGTSALWRHLRSAHRRELE | 3.48 |
| GVGFHAGTSALWRHLRSAHRRELE | 2.77 |
| GDGFHAGTSALWRHLRSAHRRELE | 3.38 |
| GPGFHAGTSALWRHLRSQHRRELE | 2.61 |
| GPGFHAGTSALWRHLRSNHRRELE | 2.45 |
| GPGFHAGTSALWRHLRSSHRRELE | 1.88 |
| GPGFHAGTSALWRHLRSTHRRELE | 2.47 |

| Variant | protein stability index |
| --- | --- |
| GPGFHAGTSALWRHLRSPHRRELE | 3.65 |
| GPGFHAGTSALWRHLRSWHRRELE | 1.63 |
| GPGFHAGTSALWRHLRSRHRRELE | 3.02 |
| GPGFHAGTSALWRHLRSCHRRELE | 1.79 |
| GPGFHAGTSALWRHLRSAHFRELE | 2.36 |
| GPGFHAGTSALWRHLRSAHQRELE | 2.31 |
| GPGFHAGTSALWRHLRSAHMRELE | 2.17 |
| GPGFHAGTSALWRHLRSAHNRELE | 1.4 |
| GPGFHAGTSALWRHLRSAHGRELE | 2.23 |
| GPGFHAGTSALWRHLRSAHTRELE | 1.92 |
| GPGFHAGTSALWRHLRSAHLRELE | 1.59 |
| GPGFHAGTSALWRHLRSAHCRELE | 2.27 |
| GPGFHQGTSALWRHLRSAHRRELE | 2.59 |
| GPGFHDGTSALWRHLRSAHRRELE | 3.52 |
| GPGFHEGTSALWRHLRSAHRRELE | 3.04 |
| GPGFHHGTSALWRHLRSAHRRELE | 2.12 |
| GPGFHYGTSALWRHLRSAHRRELE | 2.59 |
| GPGFHLGTSALWRHLRSAHRRELE | 2.24 |
| GPGFHWGTSALWRHLRSAHRRELE | 1.82 |
| GPGFHSGTSALWRHLRSAHRRELE | 2.14 |
| GPGFHMGTSALWRHLRSAHRRELE | 2.58 |
| GPGFHCGTSALWRHLRSAHRRELE | 1.65 |
| GPGFHAGTSALWRHLESAHRRELE | 2.41 |
| GPGFHAGTSALWRHLGSAHRRELE | 1.73 |

| Variant | protein stability index |
| --- | --- |
| GPGFHAGTSALWRHLMSAHRRELE | 2.97 |
| GPGFHAGTSALWRHLFSAHRRELE | 2.07 |
| GPGFHAGTSALWRHLSSAHRRELE | 2.21 |
| GPGFHAGTSALWRHLNSAHRRELE | 2.34 |
| GPGFHAGTSALWRHLYSAHRRELE | 1.75 |
| GPGFHAGTSALWRHLVSAHRRELE | 1.84 |
| GPGFHAGTSALWRHLDSAHRRELE | 2.25 |
| GPGFHAGTSALWRHLASAHRRELE | 2.45 |
| GPGFHAGTMALWRHLRSAHRRELE | 2.44 |
| GPGFHAGTIALWRHLRSAHRRELE | 1.74 |
| GPGFHAGTKALWRHLRSAHRRELE | 2.68 |
| GPGFHAGTWALWRHLRSAHRRELE | 2.05 |
| GPGFHAGTYALWRHLRSAHRRELE | 3.23 |
| GPGFHAGTEALWRHLRSAHRRELE | 3.25 |
| GPGFHAGTPALWRHLRSAHRRELE | 2.08 |
| GPMFHAGTSALWRHLRSAHRRELE | 3.16 |
| GPYFHAGTSALWRHLRSAHRRELE | 3.36 |
| GPQFHAGTSALWRHLRSAHRRELE | 2.45 |
| GPNFHAGTSALWRHLRSAHRRELE | 3.56 |
